Assay results published in patent publication US20210317204A1 (ALMAC DISCOVERY, published 2021).
Values belong to the binder of their own block, whether it stands above or below them.

Legend:
[1] = target: T1, human ROR1 extracellular domain-Fc fusion (human, UniProt Q01973 30-406); assay: SPR
T1 construct: extracellular domain; also called hROR1; ROR1-hFc

[2] = target: T2, human ROR2 extracellular domain-Fc fusion (human, UniProt Q01974 34-403); assay: SPR
T2 construct: extracellular domain; also called hROR2; ROR2-hFc

D3-[G4S]5-D3 homodimer = target: T3, D3-[G4S]5-D3 homodimer; assay: competition ELISA: VNAR pre-incubated with peptide 5, residual binding to coated huROR1-Fc [continued]
T3 construct: also called D3-D3; D3D3; not shown: C-terminal His6 or His6Myc tag (His6Myc in flow cytometry)

D3 VNAR = target: T4, D3 VNAR; assay: as above
T4 construct: shark VNAR domain; also called D3 WT; D3 monomer; not shown: C-terminal His6 or His6Myc tag (His6Myc in flow cytometry)

[3] = target: T5, B1 VNAR (C-terminal His6 or His6Myc tag, not said which); assay: as above
T5 construct: shark VNAR domain; also called VNAR B1; B1 monomer

[4] = target: T1, human ROR1 extracellular domain-Fc …; assay: SPR, ROR1-hFc on chip; E. coli
[5] = target: T6, rat ROR1 extracellular domain-Fc fusion (rat, UniProt D3ZZ97 30-406); assay: ELISA on coated rat ROR1-Fc
T6 construct: extracellular domain; also called rROR1

[6] = target: T6, rat ROR1 extracellular domain-Fc fusion; assay: SPR, rROR1 on chip
[7] = target: T2, human ROR2 extracellular domain-Fc …; assay: ELISA on coated human ROR2-Fc
[8] = target: T7, mouse ROR1 extracellular domain-Fc fusion (mouse, UniProt Q9Z139 30-406); assay: SPR, mROR1 on chip
T7 construct: extracellular domain; also called mROR1; mouse ROR1-Fc

[9] = target: T2, human ROR2 extracellular domain-Fc …; assay: SPR; remark: listed apart in the source
mouse serum albumin = target: T8, mouse serum albumin (mouse, UniProt P07724 25-608); assay: SPR, albumin on chip
T8 construct: also called MSA

rat serum albumin = target: T9, rat serum albumin (rat, UniProt P02770 25-608); assay: SPR, albumin on chip
T9 construct: also called RSA
T9 sequence (P02770 25-608 limits assumed): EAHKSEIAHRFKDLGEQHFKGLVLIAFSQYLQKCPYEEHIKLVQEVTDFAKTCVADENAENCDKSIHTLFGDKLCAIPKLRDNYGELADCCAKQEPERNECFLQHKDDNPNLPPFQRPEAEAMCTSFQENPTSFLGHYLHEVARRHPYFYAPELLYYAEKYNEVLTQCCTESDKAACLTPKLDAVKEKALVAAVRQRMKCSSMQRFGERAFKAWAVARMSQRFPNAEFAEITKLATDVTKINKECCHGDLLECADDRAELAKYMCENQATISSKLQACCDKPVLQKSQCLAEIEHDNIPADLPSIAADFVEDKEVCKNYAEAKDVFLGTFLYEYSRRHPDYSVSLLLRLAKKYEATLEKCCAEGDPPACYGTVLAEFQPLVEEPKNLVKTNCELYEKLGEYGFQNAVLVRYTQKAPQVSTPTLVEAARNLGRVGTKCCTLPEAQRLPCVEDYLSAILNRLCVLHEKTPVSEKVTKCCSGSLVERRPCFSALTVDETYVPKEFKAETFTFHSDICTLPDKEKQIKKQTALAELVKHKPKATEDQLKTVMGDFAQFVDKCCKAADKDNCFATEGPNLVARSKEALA

T7 sequence (Q9Z139 30-406): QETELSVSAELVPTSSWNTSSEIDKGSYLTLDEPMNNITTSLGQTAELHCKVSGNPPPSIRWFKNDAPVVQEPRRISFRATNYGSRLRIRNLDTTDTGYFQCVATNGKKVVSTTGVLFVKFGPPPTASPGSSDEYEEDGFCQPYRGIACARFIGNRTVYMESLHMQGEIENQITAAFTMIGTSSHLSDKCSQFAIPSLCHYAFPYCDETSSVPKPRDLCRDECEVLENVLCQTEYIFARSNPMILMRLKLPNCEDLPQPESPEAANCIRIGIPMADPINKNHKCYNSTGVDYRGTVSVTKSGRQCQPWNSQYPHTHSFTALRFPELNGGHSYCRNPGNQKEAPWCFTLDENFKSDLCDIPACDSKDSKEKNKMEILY
T5 sequence (chain, as listed by the source): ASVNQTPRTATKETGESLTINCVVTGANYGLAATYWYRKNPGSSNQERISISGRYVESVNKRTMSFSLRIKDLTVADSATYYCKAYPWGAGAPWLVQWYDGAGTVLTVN
T3 sequence (chain, as listed by the source): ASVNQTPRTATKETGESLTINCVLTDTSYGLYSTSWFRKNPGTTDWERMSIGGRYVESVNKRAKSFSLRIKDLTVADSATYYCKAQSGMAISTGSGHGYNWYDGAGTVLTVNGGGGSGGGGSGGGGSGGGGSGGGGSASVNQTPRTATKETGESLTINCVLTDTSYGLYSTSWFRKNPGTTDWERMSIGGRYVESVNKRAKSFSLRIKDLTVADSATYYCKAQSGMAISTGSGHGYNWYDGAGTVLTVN
T4 sequence (chain, as listed by the source): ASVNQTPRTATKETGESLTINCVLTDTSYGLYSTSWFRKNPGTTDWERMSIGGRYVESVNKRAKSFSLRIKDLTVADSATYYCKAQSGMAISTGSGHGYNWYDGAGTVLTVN
T8 sequence (P07724 25-608 limits assumed): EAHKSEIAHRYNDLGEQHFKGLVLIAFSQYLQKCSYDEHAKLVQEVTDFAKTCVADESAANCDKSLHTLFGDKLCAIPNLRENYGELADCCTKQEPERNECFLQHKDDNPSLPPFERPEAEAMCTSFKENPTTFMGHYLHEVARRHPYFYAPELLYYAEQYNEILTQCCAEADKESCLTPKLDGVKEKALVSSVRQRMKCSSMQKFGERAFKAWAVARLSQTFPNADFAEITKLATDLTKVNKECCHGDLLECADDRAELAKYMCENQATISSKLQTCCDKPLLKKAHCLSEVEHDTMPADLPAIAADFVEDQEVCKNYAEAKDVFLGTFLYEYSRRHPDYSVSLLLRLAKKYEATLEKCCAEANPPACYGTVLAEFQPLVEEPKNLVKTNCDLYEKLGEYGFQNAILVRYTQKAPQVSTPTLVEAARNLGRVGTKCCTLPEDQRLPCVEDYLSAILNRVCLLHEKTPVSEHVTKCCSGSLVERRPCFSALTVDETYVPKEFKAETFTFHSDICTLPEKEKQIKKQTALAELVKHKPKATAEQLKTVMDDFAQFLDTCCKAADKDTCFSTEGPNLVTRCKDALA

binding result (D3-[G4S]5-D3 homodimer): no binding (tested: 1000 nM)
binding result (D3 VNAR): no binding (tested: 1000 nM)
binding result [3]: no binding (tested: 1000 nM)
Binder: RSTIYGSRLRIRNLDTTDTGYFQ (also called ROR1 ECD Peptide 5) [peptide 5]

binding result [9]: no binding
binding result (mouse serum albumin): no binding
binding result (rat serum albumin): no binding
binding result [6]: no binding
binding result [8]: no binding
B4: 2V control VNAR (VNAR, not shown: small tags and cut ends)
VNAR: TRVDQTPRTATKETGESLTINCVLTDTSYGLYSTSWFRKNPGTTDWERMSIGGRYVESVNKGAKSFSLRIKDLTVADSATYYCKAQSLAISTRSYWYDGAGTVLTVN
notes: control VNAR from a naive library, no known target; also called 2V monomer

The next lines start with the binder.

B1: P3A1 dimer without tag (VNAR)
chain: TRVDQTPRTATKETGESLTINCVLTDTSYGLYSTSWFRKNPGTTDWERMSIGGRYVESVNKGAKSFSLRIKDLTVADSATYYCKAREARHPWLRQWYDGAGTVLTVNGGGGSGGGGSGGGGSGGGGSGGGGSTRVDQTPRTATKETGESLTINCVLTDTSYGLYSTSWFRKNPGTTDWERMSIGGRYVESVNKGAKSFSLRIKDLTVADSATYYCKAREARHPWLRQWYDGAGTVLTVN
notes: also called P3A1 dimer No tag
Kd [1]: 0.36 nM
koff [1]: 0.000598 s⁻¹
kon [1]: 1.67e+06 M⁻¹ s⁻¹
binding result [2]: no binding

B2: P3A1 VNAR (C-terminal His6 or His6Myc tag, not said which) (VNAR, not shown: small tags and cut ends)
VNAR: TRVDQTPRTATKETGESLTINCVLTDTSYGLYSTSWFRKNPGTTDWERMSIGGRYVESVNKGAKSFSLRIKDLTVADSATYYCKAREARHPWLRQWYDGAGTVLTVN
notes: shark VNAR domain; also called P3A1 monomer
Kd [4]: 19.1 nM
koff [4]: 0.0442 s⁻¹
kon [4]: 2.47e+06 M⁻¹ s⁻¹
EC50 (read off the curve) [5]: ~0.3 µg/mL
Kd [6]: 17.7 nM
koff [6]: 0.045 s⁻¹
kon [6]: 2.86e+06 M⁻¹ s⁻¹
binding result [7]: no binding (tested: 10 ug/ml)
Kd [8]: 14.3 nM
koff [8]: 0.0408 s⁻¹
kon [8]: 2.95e+06 M⁻¹ s⁻¹

B3: P3A1 VNAR with 6xHis tag (VNAR, not shown: small tags and cut ends)
VNAR: TRVDQTPRTATKETGESLTINCVLTDTSYGLYSTSWFRKNPGTTDWERMSIGGRYVESVNKGAKSFSLRIKDLTVADSATYYCKAREARHPWLRQWYDGAGTVLTVN
notes: shark VNAR domain; also called P3A1 6xHis
Kd [1]: 7.8 nM
koff [1]: 0.0206 s⁻¹
kon [1]: 2.92e+06 M⁻¹ s⁻¹
binding result [2]: no binding

B5: P3A1 VNAR with His6Myc tag (VNAR)
VNAR: TRVDQTPRTATKETGESLTINCVLTDTSYGLYSTSWFRKNPGTTDWERMSIGGRYVESVNKGAKSFSLRIKDLTVADSATYYCKAREARHPWLRQWYDGAGTVLTVNQ
notes: shark VNAR domain; also called P3A1 6xHis myc
Kd [1]: 25.6 nM
koff [1]: 0.025 s⁻¹
kon [1]: 980000 M⁻¹ s⁻¹
binding result [2]: no binding
